# Experimental data from the Human Domainome abundance scans (Beltran et al. 2025).
# ± gives the uncertainty stated by the source.
# B1: Zinc finger homeobox protein 4, residues 2086 to 2141; numbered along this chain, Q86UP3 (parent)
# chain: RPRTRITDDQLKILRAYFDINNSPSEEQIQEMAEKSGLSQKVIKHWFRNTLFKERQ
# Variants of: B1
# Assay: abundance fitness (aPCA) (normalised: wild type 0, dead -1); higher = more abundant; growth selection in yeast, the domain comes from the species named
# Conditions: Homo sapiens
row,Variant,abundance fitness
1,RPRTRITDDQLKILRAYFDINNSPSEEFIQEMAEKSGLSQKVIKHWFRNTLFKERQ [Q28F],-0.416 ± 0.18
2,RPRTRITDDQLKILRAYFDINNSPSEEIIQEMAEKSGLSQKVIKHWFRNTLFKERQ [Q28I],0.06 ± 0.17
3,RPRTRITDDQLKILRAYFDINNSPSEEHIQEMAEKSGLSQKVIKHWFRNTLFKERQ [Q28H],-0.046 ± 0.1
4,RPRTRITDDQLKILRAYFDINNSPSEECIQEMAEKSGLSQKVIKHWFRNTLFKERQ [Q28C],-0.244 ± 0.089
5,RPRTRITDDQLKILRAYFDINNSPSEEKIQEMAEKSGLSQKVIKHWFRNTLFKERQ [Q28K],0.064 ± 0.12
6,RPRTRITDDQLKILRAYFDINNSPSEETIQEMAEKSGLSQKVIKHWFRNTLFKERQ [Q28T],-0.034 ± 0.11
7,RPRTRITDDQLKILRAYFDINNSPSEENIQEMAEKSGLSQKVIKHWFRNTLFKERQ [Q28N],-0.329 ± 0.14
8,RPRTRITDDQLKILRAYFDINNSPSEELIQEMAEKSGLSQKVIKHWFRNTLFKERQ [Q28L],-0.102 ± 0.077
9,RPRTRITDDQLKILRAYFDINNSPSEEEIQEMAEKSGLSQKVIKHWFRNTLFKERQ [Q28E],-0.155 ± 0.12
10,RPRTRITDDQLKILRAYFDINNSPSEEVIQEMAEKSGLSQKVIKHWFRNTLFKERQ [Q28V],-0.033 ± 0.074
11,RPRTRITDDQLKILRAYFDINNSPSEEDIQEMAEKSGLSQKVIKHWFRNTLFKERQ [Q28D],-0.12 ± 0.11
12,RPRTRITDDQLKILRAYFDINNSPSEEPIQEMAEKSGLSQKVIKHWFRNTLFKERQ [Q28P],-0.533 ± 0.094
13,RPRTRITDDQLKILRAYFDINNSPSEESIQEMAEKSGLSQKVIKHWFRNTLFKERQ [Q28S],-0.095 ± 0.077
14,RPRTRITDDQLKILRAYFDINNSPSDEQIQEMAEKSGLSQKVIKHWFRNTLFKERQ [E26D],-0.069 ± 0.12
15,RPRTRITDDQLKILRAYFDINNSPSQEQIQEMAEKSGLSQKVIKHWFRNTLFKERQ [E26Q],-0.003 ± 0.094
16,RPRTRITDDQLKILRAYFDINNSPSREQIQEMAEKSGLSQKVIKHWFRNTLFKERQ [E26R],0.021 ± 0.071
17,RPRTRITDDQLKILRAYFDINNSPSKEQIQEMAEKSGLSQKVIKHWFRNTLFKERQ [E26K],0.039 ± 0.14
18,RPRTRITDDQLKILRAYFDINNSPSAEQIQEMAEKSGLSQKVIKHWFRNTLFKERQ [E26A],-0.027 ± 0.077
19,RPRTRITDDQLKILRAYFDINNSPSLEQIQEMAEKSGLSQKVIKHWFRNTLFKERQ [E26L],-0.015 ± 0.079
20,RPRTRITDDQLKILRAYFDINNSPSFEQIQEMAEKSGLSQKVIKHWFRNTLFKERQ [E26F],0.111 ± 0.14
21,RPRTRITDDQLKILRAYFDINNSPSSEQIQEMAEKSGLSQKVIKHWFRNTLFKERQ [E26S],-0.076 ± 0.078
22,RPRTRITDDQLKILRAYFDINNSPSWEQIQEMAEKSGLSQKVIKHWFRNTLFKERQ [E26W],-0.322 ± 0.11
23,RPRTRITDDQLKILRAYFDINNSPSVEQIQEMAEKSGLSQKVIKHWFRNTLFKERQ [E26V],-0.056 ± 0.078
24,RPRTRITDDQLKILRAYFDINNSPSYEQIQEMAEKSGLSQKVIKHWFRNTLFKERQ [E26Y],0.048 ± 0.12

row,Variant,abundance fitness
1,RPRTRITDDQLKILRAYFDINNSPSCEQIQEMAEKSGLSQKVIKHWFRNTLFKERQ [E26C],-0.211 ± 0.12
2,RPRTRITDDQLKILRAYFDINNSPSTEQIQEMAEKSGLSQKVIKHWFRNTLFKERQ [E26T],0.133 ± 0.089
3,RPRTRITDDQLKILRAYFDINNSPSGEQIQEMAEKSGLSQKVIKHWFRNTLFKERQ [E26G],-0.154 ± 0.074
4,RPRTRITDDQLKILRAYFDINNSPSMEQIQEMAEKSGLSQKVIKHWFRNTLFKERQ [E26M],-0.032 ± 0.09
5,RPRTRITDDQLKILRAYFDINNSPSPEQIQEMAEKSGLSQKVIKHWFRNTLFKERQ [E26P],-0.032 ± 0.093
6,RPRTRITDDQLKILRAYFDINNSCSEEQIQEMAEKSGLSQKVIKHWFRNTLFKERQ [P24C],-0.462 ± 0.12
7,RPRTRITDDQLKILRAYFDINNSESEEQIQEMAEKSGLSQKVIKHWFRNTLFKERQ [P24E],-0.326 ± 0.18
8,RPRTRITDDQLKILRAYFDINNSHSEEQIQEMAEKSGLSQKVIKHWFRNTLFKERQ [P24H],-0.427 ± 0.08
9,RPRTRITDDQLKILRAYFDINNSRSEEQIQEMAEKSGLSQKVIKHWFRNTLFKERQ [P24R],-0.642 ± 0.11
10,RPRTRITDDQLKILRAYFDINNSDSEEQIQEMAEKSGLSQKVIKHWFRNTLFKERQ [P24D],-0.844 ± 0.14
11,RPRTRITDDQLKILRAYFDINNSNSEEQIQEMAEKSGLSQKVIKHWFRNTLFKERQ [P24N],-0.691 ± 0.091
12,RPRTRITDDQLKILRAYFDINNSSSEEQIQEMAEKSGLSQKVIKHWFRNTLFKERQ [P24S],-0.553 ± 0.072
13,RPRTRITDDQLKILRAYFDINNSYSEEQIQEMAEKSGLSQKVIKHWFRNTLFKERQ [P24Y],-0.51 ± 0.087
14,RPRTRITDDQLKILRAYFDINNSLSEEQIQEMAEKSGLSQKVIKHWFRNTLFKERQ [P24L],-0.259 ± 0.067
15,RPRTRITDDQLKILRAYFDINNSASEEQIQEMAEKSGLSQKVIKHWFRNTLFKERQ [P24A],-0.294 ± 0.08
16,RPRTRITDDQLKILRAYFDINNSFSEEQIQEMAEKSGLSQKVIKHWFRNTLFKERQ [P24F],-0.538 ± 0.098
17,RPRTRITDDQLKILRAYFDINNSGSEEQIQEMAEKSGLSQKVIKHWFRNTLFKERQ [P24G],-0.793 ± 0.14
18,RPRTRITDDQLKILRAYFDINNSMSEEQIQEMAEKSGLSQKVIKHWFRNTLFKERQ [P24M],-0.676 ± 0.12
19,RPRTRITDDQLKILRAYFDINNSISEEQIQEMAEKSGLSQKVIKHWFRNTLFKERQ [P24I],-0.337 ± 0.092
20,RPRTRITDDQLKILRAYFDINNSKSEEQIQEMAEKSGLSQKVIKHWFRNTLFKERQ [P24K],-0.922 ± 0.15
21,RPRTRITDDQLKILRAYFDINNSWSEEQIQEMAEKSGLSQKVIKHWFRNTLFKERQ [P24W],-0.435 ± 0.18
22,RPRTRITDDQLKILRAYFDINNSVSEEQIQEMAEKSGLSQKVIKHWFRNTLFKERQ [P24V],-0.32 ± 0.081
23,RPRTRITDDQLKILRAYFDINNSTSEEQIQEMAEKSGLSQKVIKHWFRNTLFKERQ [P24T],-0.474 ± 0.084
